T1: A33 antigen (full-length human A33) (human, UniProt Q99795 22-319)
T1 construct: Class I cell membrane protein of the Ig superfamily; also called GPA33; human A33 antigen
T1 sequence: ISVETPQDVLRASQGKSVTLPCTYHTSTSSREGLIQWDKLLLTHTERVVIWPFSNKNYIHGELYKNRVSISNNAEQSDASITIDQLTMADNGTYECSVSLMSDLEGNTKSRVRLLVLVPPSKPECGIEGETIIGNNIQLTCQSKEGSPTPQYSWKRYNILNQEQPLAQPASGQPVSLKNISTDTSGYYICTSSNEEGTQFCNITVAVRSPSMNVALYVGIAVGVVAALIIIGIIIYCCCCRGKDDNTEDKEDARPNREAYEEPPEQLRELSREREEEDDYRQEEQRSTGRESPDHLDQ

B1: recQ54 (antibody, V domains shown)
VH: EVQLLESGGGLVQPGGSLRLSCAASGFTFSSYAMSWVRQAPGKGLEWVSDISGSGGYTYYADSVKGRFTISRDNSKNTLYLQMNSLRAEDTAVYYCAKTGDGSGSYSPDSWGQGTLVTVSS
VL: DIQMTQSPSSLSASVGDRVTITCRASQGISRWLAWYQQKPEKAPKSLIYAASSLQSGVPSRFSGSGSGTDFTLTISSLQPEDFATYYCQQYNSYPYTFGQGTKLEIK
notes: also called recQ54 antibody; Q54 recombinant antibody
B2: recM10 (antibody, V domains shown)
VH: QLQVQESGPGLVKPSETLSLICTVSGGSIRTSGYYWGWFRQPPGKGLEWIGTSHNSGSTYYNPSLKSRVTISVDTSKNQFSLKLNSVTAADTAVYYCARQGYDFKVNIDVWGQGTTVTVSS
VL: EIVLTQSPATLSLSPGERATLSCRASQSVSSYLAWYQQKPGQAPRLLIYDASNRATGIPARFSGSGSGTDFTLTISSLEPEDFAVYYCQQRSNWPLTFGGGTKVEIK
notes: also called recM10 antibody; M10 recombinant antibody
B3: recM165 (antibody, V domains shown)
VH: QVQLVESGGGVVQPGRSLRLSCAASGFTFSYYGMHWVRQAPGKGLEWVAVIWYDGSNKYYADSVKGRFTISRDNSKKTLYLQMNSLRAEDTAVYYCARDGHSSGWGDFQHWGQGTLVTVSS
VL: EIVLTQSPATLSLSPGERATLSCRASQSVSSSLAWYQQKPGQAPRLLIYDASNRATGIPARFSGSGSGTDFTLTISSLEPEDFAIYYCQQRSNWPPTFGQGTKVEIK
notes: also called recM165 antibody; M165 recombinant antibody
B4: recN26 (antibody, V domains shown)
VH: QVQLVESGGGVVQPGRSLRLSCAASGFTFSHYGMHWVRQAPGKGLEWVALIWYDGSNKYYADSVKGRFTISRDNSKNTLYLQMNSLRAEDTAVYYCARDPLAAGTSYFDYWGQGTLVTVSS
VL: EIVLTQSPDFQSVTPKEKVTITCRASQSIGSSLHWYQQKPDQSPKLLIKYASQSFSGVPSRFSGSGSGTDFTLTINSLEAEDAAAYYCHQSSSLPFTFGPGTKVDIK
notes: also called recN26 antibody; N26 recombinant antibody
B5: chimeric anti-A33 antibody (antibody, V domains shown)
VH: EVKLVESGGGLVKPGGSLKLSCAASGFAFSTYDMSWVRQTPEKRLEWVATISSGGSYTYYLDSVKGRFTISRDSARNTLYLQMSSLRSEDTALYYCAPTTVVPFAYWGQGTLVTVSS
VL: DIVMTQSQKFMSTSVGDRVSITCKASQNVRTVVAWYQQKPGQSPKTLIYLASNRHTGVPDRFTGSGSGTDFTLTISNVQSEDLADYFCLQHWSYPLTFGSGTKLEVK
notes: Mouse variable regions with human IgG1 heavy chain and light chain constant regions (N5KG1-Val Lark vector); also called cA33; chimeric anti-A33 recombinant antibody

Key:
[1] = target: T1, A33 antigen (full-length human A33); experiment: FCM on LS174T cells; grade = ng/ml to reach half MFI 100 (+++ 10<=x<100, ++ 100<=x<1000, + 1000<=x<10000)
[2] = target: T1, A33 antigen (full-length human A33); experiment: FCM competition on COLO205 cells as in Example 10; competitor mouse anti-A33 antibody
Method: (§1) Whether or not each type of purified monoclonal antibody obtained in Example 8 recognizes an epitope similar to that of the mouse anti-A33 antibody was examined by a competition test using FCM. The COLO205 cell line was suspended at a concentration of 2×10⁶/ml in a PBS Staining Buffer (SB) containing 0.1% NaN₃ and 2% FCS. The cell suspension (50 μl/well) was dispensed in a 96-well round bottom plate (produced by Becton, Dickinson and Company). The purified mouse anti-A33 antibody prepared in Example 1 was not added or added at a concentration of 100 μg/ml to the wells containing each type of purified monoclonal antibody (1 μg/ml and 50 μl), followed by 30 minutes of incubation on ice. A mouse negative control (containing no purified anti-A33 antibody added thereto) was prepared as follows. A human IgG1 antibody (produced by Sigma) was adjusted at a concentration of 1 μg/ml with SB and then 50 μl of the solution was added, followed by 30 minutes of incubation on ice. The resultant was washed twice with SB and then 50 μl of FITC fluorescence-labeled goat anti-human IgG F(ab′)₂ antibody (produced by IBL) was added, followed by 30 minutes of incubation on ice. The resultant was washed once with SB and then the resultant was suspended in 300 μl of a FACS buffer. The mean fluorescence intensity of each cell line was measured by FACS (FACScan produced by Becton, Dickinson and Company). The inhibition (%) between each type of purified monoclonal antibody and the mouse A33 antibody was calculated by the following formula: […]

[3] = target: T1, A33 antigen (full-length human A33); experiment: FCM on NCI-H508 cells; grade = ng/ml to reach half MFI 175 (+++ 10<=x<100, ++ 100<=x<1000, + 1000<=x<10000)
[4] = target: T1, A33 antigen (full-length human A33); experiment: FCM on COLO205 cells; grade = ng/ml to reach half MFI 45 (+++ 10<=x<100, ++ 100<=x<1000, + 1000<=x<10000)
[5] = target: T1, A33 antigen (full-length human A33); experiment: FCM on NCI-H508 cells; grade = ng/ml to reach half MFI 125 (+++ 10<=x<100, ++ 100<=x<1000, + 1000<=x<10000)
Excerpt: (§2) The reactivity of each type of purified monoclonal antibody obtained in Example 8 to A33-antigen-expressing human colorectal cancer cell line COLO205 cells, LoVo cells (ATCC No. CCL-229), LS174T cells (ATCC No. CL-188), and NCI-H508 cells (ATCC No. CCL-253) was examined by FCM. Human colorectal cancer cell line HT-29 cells (ATCC No. HTB-38) expressing no A33 antigen were also examined as negative control cells. Each cell line was suspended at a concentration of 2×10⁶/ml in a PBS Staining Buffer (SB) containing 0.1% NaN₃ and 2% FCS. The cell suspension (50 μl/well) was dispensed in a 96-well round bottom plate (produced by Becton, Dickinson and Company). 50 μl of each type of purified monoclonal antibody (adjusted using SB at a concentration of 2000, 400, 80, or 16 ng/ml) was added, and then incubation was performed on ice for 30 minutes. A negative control was prepared depending on each subclass. Specifically, a human IgG1 antibody (produced by Sigma) was adjusted using SB at a concentration of 2000, 400, 80, or 16 ng/ml. 50 μl of the solution was added, followed by 30 minutes of incubation on ice. The resultant was washed twice with SB and then 50 μl of an FITC fluorescence-labeled goat anti-human IgG F(ab′)₂ antibody (produced by Southern Biotech), followed by 30 minutes of incubation on ice. The resultant was washed once with SB and then the resultant was suspended in 300 μl of a FACS buffer. The mean fluorescence intensity of each cell line was measured by FACS (FACScan produced by Becton, Dickinson and Company).
(§3) For COLO205 cells, the half value of the mean fluorescence intensity was determined to be 90. For LoVo cells, the half value of the mean fluorescence intensity was determined to be 25. […] When an antibody concentration required to reach such value was 10<=x<100 ng/ml, the reactivity was represented by +++, when the same was 100<=x<1000 ng/ml, the reactivity was represented by ++, and when the same was 1000<=x<10000 ng/ml, the reactivity was represented by +. When no binding was observed, the reactivity was represented by −.

[6] = target: T1, A33 antigen (full-length human A33); experiment: FCM on LS174T cells; grade = ng/ml to reach half MFI 125 (+++ 10<=x<100, ++ 100<=x<1000, + 1000<=x<10000)
Excerpt: as §2, §3

[7] = target: T1, A33 antigen (full-length human A33); experiment: FCM on COLO205 cells; grade = ng/ml to reach half MFI 90 (+++ 10<=x<100, ++ 100<=x<1000, + 1000<=x<10000)
Excerpt: as §2, §3

[8] = target: T1, A33 antigen (full-length human A33); experiment: FCM competition on COLO205 cells; antibody 1 µg/ml, competitor mouse anti-A33 antibody 100 µg/ml
Method: as §1

[9] = target: T1, A33 antigen (full-length human A33); experiment: FCM on LoVo cells; grade = ng/ml to reach half MFI 25 (+++ 10<=x<100, ++ 100<=x<1000, + 1000<=x<10000)
Excerpt: as §2, §3

Row | Binder | antibody concentration required to reach half value of the mean fluorescence intensity [1] [ng/mL] | Inhibition (%) [2] [%] | antibody concentration required to reach half value of the mean fluorescence intensity [3] [ng/mL] | antibody concentration required to reach half value of the mean fluorescence intensity [4] [ng/mL] | antibody concentration required to reach half value of mean fluorescence intensity [5] [ng/mL] | antibody concentration required to reach half value of mean fluorescence intensity [6] [ng/mL] | antibody concentration required to reach half value of mean fluorescence intensity [7] [ng/mL] | Inhibition (%) [8] [%] | antibody concentration required to reach half value of mean fluorescence intensity [9] [ng/mL]
1 | B1 | 10 to 100 | 44.6 | 10 to 100 | 10 to 100 |  |  |  |  | 
2 | B2 | 10 to 100 | 0.2 | 10 to 100 | 10 to 100 |  |  |  |  | 
3 | B3 | 100 to 1000 | 93.4 | 100 to 1000 | 100 to 1000 |  |  |  |  | 
4 | B4 | 10 to 100 | 95.3 | 10 to 100 | 100 to 1000 |  |  |  |  | 
5 | B5 | 10 to 100 | 94.6 | 10 to 100 | 10 to 100 | 100 to 1000 | 100 to 1000 | 10 to 100 | 94.2 | 10 to 100

Source: patent publication US20080200654A1 (KIRIN PHARMA, published 2008)
